The results in this text go back to PMC9507969, “Visualizing maturation factor extraction from the nascent ribosome by the AAA-ATPase Drg1” (Nature Structural & Molecular Biology, 2022).

B1: Drg1 (diazaborine resistance gene 1), wild type, purified (enzyme, S. cerevisiae)
chain: MAPKSSSSGSKKKSSASSNSADAKASKFKLPAEFITRPHPSKDHGKETCTAYIHPNVLSSLEINPGSFCTVGKIGENGILVIARAGDEEVHPVNVITLSTTIRSVGNLILGDRLELKKAQVQPPYATKVTVGSLQGYNILECMEEKVIQKLLDDSGVIMPGMIFQNLKTKAGDESIDVVITDASDDSLPDVSQLDLNMDDMYGGLDNLFYLSPPFIFRKGSTHITFSKETQANRKYNLPEPLSYAAVGGLDKEIESLKSAIEIPLHQPTLFSSFGVSPPRGILLHGPPGTGKTMLLRVVANTSNAHVLTINGPSIVSKYLGETEAALRDIFNEARKYQPSIIFIDEIDSIAPNRANDDSGEVESRVVATLLTLMDGMGAAGKVVVIAATNRPNSVDPALRRPGRFDQEVEIGIPDVDARFDILTKQFSRMSSDRHVLDSEAIKYIASKTHGYVGADLTALCRESVMKTIQRGLGTDANIDKFSLKVTLKDVESAMVDIRPSAMREIFLEMPKVYWSDIGGQEELKTKMKEMIQLPLEASETFARLGISAPKGVLLYGPPGCSKTLTAKALATESGINFLAVKGPEIFNKYVGESERAIREIFRKARSAAPSIIFFDEIDALSPDRDGSSTSAANHVLTSLLNEIDGVEELKGVVIVAATNRPDEIDAALLRPGRLDRHIYVGPPDVNARLEILKKCTKKFNTEESGVDLHELADRTEGYSGAEVVLLCQEAGLAAIMEDLDVAKVELRHFEKAFKGIARGITPEMLSYYEEFALRSGSSS
notes: Drg1 (AFG2), hexameric type-II AAA-ATPase of S. cerevisiae, wild type; Hexamer in the cryo-EM maps; also called DRG1 (AFG2); AAA-ATPase Drg1; source: overexpressed in yeast as GST fusion (CuSO4-induced), purified on GSH-agarose, eluted by Prescission protease cleavage
B5: Nog1 on the pre-60S particle (natural protein, UniProt Q02892 1-647, looked up)
chain: MQLSWKDIPTVAPANDLLDIVLNRTQRKTPTVIRPGFKITRIRAFYMRKVKYTGEGFVEKFEDILKGFPNINDVHPFHRDLMDTLYEKNHYKISLAAISRAKSLVEQVARDYVRLLKFGQSLFQCKQLKRAALGRMATIVKKLRDPLAYLEQVRQHIGRLPSIDPNTRTLLICGYPNVGKSSFLRCITKSDVDVQPYAFTTKSLYVGHFDYKYLRFQAIDTPGILDRPTEEMNNIEMQSIYAIAHLRSCVLYFMDLSEQCGFTIEAQVKLFHSIKPLFANKSVMVVINKTDIIRPEDLDEERAQLLESVKEVPGVEIMTSSCQLEENVMEVRNKACEKLLASRIENKLKSQSRINNVLNKIHVAQPQARDDVKRTPFIPESVKNLKKYDPEDPNRRKLARDIEAENGGAGVFNVNLKDKYLLEDDEWKNDIMPEILDGKNVYDFLDPEIAAKLQALEEEEEKLENEGFYNSDDEEEIYDGFEASEVDDIKEKAAWIRNRQKTMIAEARNRKSLKNKAIMPRSKLTKSFGKMEEHMSTLGHDMSALQDKQNRAARKNRYVERGSDVVFGDQDALTASTENGVKLRQTDRLLDGVADGSMRSKADRMAKMERRERNRHAKQGESDRHNAVSLSKHLFSGKRGVGKTDFR
notes: Nog1 of S. cerevisiae; source: endogenous, on pre-60S particles purified from S. cerevisiae via Bud20-TAP (cryo-EM, blots) or Arx1-TAP (cross-linking)
B6: Rlp24 (ribosomal-like protein 24) on the pre-60S particle (natural protein)
chain: not shown
notes: Ribosomal-like protein 24 (Rlp24) of S. cerevisiae

Series [1] deals with export-competent pre-60S particle purified via Bud20-TAP (S. cerevisiae (endogenous in the yeast …, UniProt Q08004 1-166; Q07915 1-199; Q03862 1-593; Q02892 1-647; P38861 1-518; P33201 …, Partial protein list of a heterogeneous ~2.1 MDa endogenous particle: members named in the text plus L2-A, L3 and L4-A from the PDB 7Z34 candidate entities. Tif6 is not named in the text and is inferr). The series is described as follows: SPR; Biacore X100; pre-60S particles captured through the Protein A moiety of Bud20-TAP on IgG immobilized on a CM3 chip; 25-150 nM Drg1 injected with 1 mM ATPγS; sigmoidal dose-response with variable slope on normalized RU. As to conditions: both partners purified. (In SPR one partner is held on a chip, and binding of the other changes the refractive index at the surface.)

Series [2] concerns the molecule itself. Kind of series: cryo-EM structure; purified Drg1 (1.75 mg/ml, 12 µM) mixed 1:1 with 200 nM export-competent Bud20-TAP pre-60S particles, 2 mM ATPγS, 10 minutes; particle-bound Drg1 and free Drg1 hexamers picked from the same dataset.
The target in series [3] is B1. Described as above. As to conditions: both partners purified.
In series [4] the target is B1. The series is described as follows: SPR; Biacore X100; GST-Rlp24C amine-coupled on a CM5 chip, GST in the reference cell; 75-10,000 nM Drg1 injected with 1 mM ATPγS; 20 mM HEPES, 10 mM KCl, 2.5 mM MgCl2, 100 mM NaCl, 0.05% Tween-20, 1 mM DTT, pH 7.5; one-site binding hyperbola on normalized RU. As to conditions: both partners purified.
The target in series [5] is B1. The series is described as follows: pull-down; GST-tagged bait on GSH-agarose beads; 80 µg Drg1 in 120 µl binding buffer (20 mM HEPES-KOH, 150 mM potassium acetate, 5 mM magnesium acetate, 0.1% Tween-20, 1 mM DTT, pH 6.8); 1 mM ATP or ATPγS or no nucleotide; 60 minutes, room temperature. As to conditions: both partners purified.
The target of series [6] is B1. Kind of series: cross-linking; pre-60S particles purified via Arx1-TAP from drg1-18 (TEV eluate) incubated with 150 µg purified Drg1 and 1 mM ATPγS, cross-linked with 1.5 mM DSS or BS3 (isotopically labeled), 30 minutes, 30 °C; LC-MS/MS, xQuest/xProphet. As to conditions: both partners purified.
In series [7] the target is B5. The series is described as follows: cryo-EM structure; purified Drg1 (1.75 mg/ml, 12 µM) mixed 1:1 with 200 nM export-competent Bud20-TAP pre-60S particles, 2 mM ATPγS, 10 minutes; particle-bound Drg1 and free Drg1 hexamers picked from the same dataset. As to conditions: both partners purified.
Series [8] deals with B6. Kind of series: co-IP; affinity purification of pre-60S particles via Bud20-TAP from S. cerevisiae crm1^T539C (untreated, LmB and/or diazaborine; ARX1 or Δarx1 background), SDS-PAGE and western blotting. As to conditions: partners not purified. For orientation: A western blot detects proteins with antibodies after separation by electrophoresis.

By EC50 is commonly meant the midpoint of the concentration-response curve. Broadly, the stoichiometry N is a count of units in the complex or per binding partner. In the case of B1, the EC50 in series [1] was 46 nM. Besides, in series [2], the “stoichiometry N” value stood at 6.

B2: Arx1 on the pre-60S particle (natural protein, UniProt Q03862 1-593, looked up)
chain: MALAISHEDTQILLKDKNILQESVLNKYRTAGQIAQTALKYVTSLINDSYHSKTTQRQLTVPELCLLTDSFILTRLEQYYKNKVNERGIAIPTTIDIDQISGGWCPEIDDTQNLLNWNKGKDSTFASSVTGTLRPGDLVKITLGVHIDGYTSEVSHTMVIYPVDETKPILQPTGPLLGGKADAVAAAHIAMETVVALLACALTPEKLPASLGGTSSGITGQLIRTIVDTIARSYNCGVVPGSRVRRIRRFLAGQNEGIVAEREYKGVVWTESHQEADLLSNTDAKDLTVVDRGQSTPFTNVSAIPSDDFVVQSGEVYLIDLKMASLEHCTKKGLVTLETVDSYTGKSHKAGELIARPGAYVRDFAQTHILKLKTSRQLLTKIDKQGVYPFKLSHLSSNFPFVHENEEELQSLKKDLKSFRLGMSEISNNYLCVESPIQIARWVPWDHILKATNPNGNLSYDATSTLTLPGHELPLPKLGVSAIKLKSLMNSTKESISLPVARECNTIVLCDSSVSTTDRPELLRLTGGSKTCQPSWIHSQHELNPQDSIVQGIFQLATLAKDKRFGLLLKETQPMKQKSVETSNGGVEETMKM
notes: Arx1 of S. cerevisiae, maturation factor at the exit of the polypeptide exit tunnel; source: endogenous, on pre-60S particles purified via Bud20-TAP from S. cerevisiae crm1^T539C after LmB treatment
For the molecule B2, the binding result in series [3] is on record as “binds”.

B3: GST-Rlp24C (Rlp24 C domain, aa 146-199) (domain or fragment, S. cerevisiae, UniProt Q07915 146-199, looked up)
chain: AKEQERAESVSEQEESEEEEEDMEIDSDEEEEEQLEKQKILLKNRRRNTKKIAF
notes: Ribosomal-like protein 24 (Rlp24) of S. cerevisiae, C domain, aa 146-199; In the ATPase assays a HIS6-tagged Rlp24C made in E. coli was used instead of the GST fusion; source: purified
Usually Kd stands for the concentration at which binding is half-saturated. Higher therefore signals a looser complex. In series [4], B3 had a Kd of 2700 nM.

B4: GST-Rlp24C RKK>E (R191E, K195E, K196E) (domain or fragment, S. cerevisiae, UniProt Q07915 146-199, looked up)
chain: AKEQERAESVSEQEESEEEEEDMEIDSDEEEEEQLEKQKILLKNRERNTEEIAF
notes: Rlp24 of S. cerevisiae, C domain aa 146-199 with three exchanges in the tail; In the ATPase assay the HIS6-tagged form of this variant was used
For B4, in series [5], the binding result was “binds”.
Take B5: the binding result in series [6] is reported as “binds”.
In the case of B6, in series [7], the binding result was “binds”.

B7: Bud20-TAP (natural protein, S. cerevisiae)
chain: MGRYSVKRYKTKRRTRDLDLIYNDLSTKESVQKLLNQPLDETKPGLGQHYCIHCAKYMETAIALKTHLKGKVHKRRVKELRGVPYTQEVSDAAAGYNLNKFLNRVQEITQSVGPEKESNEALLKEHLDSTLANVKTTEPTLPWAAADAEANTAAVTEAESTASAST
notes: Bud20 of S. cerevisiae; For cryo-EM the Protein A part of the tag was removed by TEV cleavage; source: expressed in S. cerevisiae crm1^T539C; bait of the pre-60S particle purification
B7: the binding result in series [8] is given as “binds”.
